Reference: patent publication US6479637B1, “Hemoglobin-haptoglobin complexes” (Hemsol Inc., priority 1998, dated 2002)

Legend:
haptoglobin 1-1 = target: T1, haptoglobin 1-1 (Homo sapiens, UniProt P00738); assay: Complex formation of modified hemoglobins with haptoglobin 1-1 (size exclusion / anion exchange chromatography); format: binding; conditions: THb-PQ mixture with haptoglobin 1-1, room temperature, 21 hours
T1 construct: Hp 1-1 is composed of two α^1β dimers and has a molecular weight of about 98 kDa
T1 sequence (P00738 19-347 isoform P00738-2 limits assumed): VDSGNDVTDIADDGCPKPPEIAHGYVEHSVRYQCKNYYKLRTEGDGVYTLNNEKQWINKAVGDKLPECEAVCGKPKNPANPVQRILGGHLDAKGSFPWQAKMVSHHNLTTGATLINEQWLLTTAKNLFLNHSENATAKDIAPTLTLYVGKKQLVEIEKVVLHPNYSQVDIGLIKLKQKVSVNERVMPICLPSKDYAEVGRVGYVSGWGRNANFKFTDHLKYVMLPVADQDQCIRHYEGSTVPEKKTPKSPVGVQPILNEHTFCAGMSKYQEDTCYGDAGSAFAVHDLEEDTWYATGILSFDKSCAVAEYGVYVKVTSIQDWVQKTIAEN
T1 sequence (P00738 103-347 isoform P00738-2 limits assumed): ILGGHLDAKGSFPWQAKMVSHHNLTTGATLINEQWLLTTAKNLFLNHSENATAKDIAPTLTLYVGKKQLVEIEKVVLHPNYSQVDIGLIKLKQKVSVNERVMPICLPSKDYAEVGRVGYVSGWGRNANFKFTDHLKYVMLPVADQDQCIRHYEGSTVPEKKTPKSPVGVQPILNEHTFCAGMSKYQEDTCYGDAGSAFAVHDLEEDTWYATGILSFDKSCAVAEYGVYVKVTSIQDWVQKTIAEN

plasmid DNA (pCMVbeta) = assay: Gel mobility shift assay of DNA binding; conditions: 50 to 1600 ng of protein, 140 ng DNA
Method: Gel mobility shift assays were conducted to evaluate the stoichiometry of binding of plasmid DNA (pCMVbeta) to the THb-Kn conjugates. This gel electrophoretic method is based on the observation that the migratory properties of the DNA are altered upon binding protein. Neither proteins nor DNA-protein complexes in which protein constitutes a significant part of their mass enter 1% agarose gels. If mixtures with an increasing THb-Kn to DNA ratio are analyzed, it is observed that the DNA band disappears at and above the ratio that corresponds to the stoichiometry of the complex. For each of the four conjugates and for the THb-K26kDa-Hp complex, solutions containing from 0.4 to 6400 ng of the conjugate (this weight based on the hemoglobin component) in 32 μL of 20 mM HEPES pH 7.3 containing 150 mM NaCl were prepared. […] The samples (15 μL) were analyzed on a 1% agarose gel containing ethidium bromide (0.2 μg/mL). The amount of conjugate which prevented DNA entry into the gel was determined.
FIG. 4A (left) and 4B (right) are depictions of gel mobility shift assays of haptoglobin-hemoglobin-DNA conjugates produced according to Example 4. […] The results for THb-K26kDa are in good agreement with the fluorescence quench assay which indicated 86% of fluorescence decrease at the same THb-K26kDa to DNA ratio. […]

[1] = Biodistribution of modified Hb and haptoglobin complexes in rat; conditions: for AUC Liver / AUC Plasma: dose = ug Hb/g body weight, no extrapolation to time zero
Method: The ability of Hp to target modified Hb to the liver was measured in a radioisotope biodistribution study. Two test articles were prepared from purified human HbA0 modified with tritium-labeled N-ethylmaleimide ([^3H]-NEM-Hb): [^3H]-NEM-Hb alone in Ringer's lactate, and [^3H]-NEM-Hb complexed to a slight excess of rat haptoglobin in rat plasma. Three treatment groups were analyzed; (A) normal rats received the modified Hb-haptoglobin complex in plasma, (B) normal rats received the modified Hb only (approximately twice the Hb-binding capacity of the rat), and (C) haptoglobin-depleted rats received the modified Hb only. Approximately 3 mg of Hb were administered to conscious Sprague-Dawley rats in each case. Liver and plasma samples were collected at 30, 60 and 120 minutes post-administration and radioactivity counted after solubilization and quenching.

rat haptoglobin = target: T2, rat haptoglobin (Rattus norvegicus, UniProt P06866); assay: Binding of modified human Hb ([3H]-NEM-Hb) to rat haptoglobin in plasma (SEC)
T2 construct: combined with rat serum containing haptoglobin; from tissue; host or cells: rat serum
T2 sequence (P06866 19-101 limits assumed): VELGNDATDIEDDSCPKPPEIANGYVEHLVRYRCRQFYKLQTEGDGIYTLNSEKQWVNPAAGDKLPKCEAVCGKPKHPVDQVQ
T2 sequence (P06866 103-347 limits assumed): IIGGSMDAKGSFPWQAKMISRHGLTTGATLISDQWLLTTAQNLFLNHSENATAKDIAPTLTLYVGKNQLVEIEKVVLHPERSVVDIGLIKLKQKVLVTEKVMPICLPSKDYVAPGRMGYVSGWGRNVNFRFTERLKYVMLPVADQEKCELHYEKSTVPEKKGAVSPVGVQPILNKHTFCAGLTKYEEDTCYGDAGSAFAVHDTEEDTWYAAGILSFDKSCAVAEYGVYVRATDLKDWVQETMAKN
Method: 1 mCi of ^3H-N-ethylmaleimide ([^3H]-NEM) in pentane was evaporated in 0.5 mL phosphate buffer, and 25 mg of Hb in 1 mL buffer was added giving a final NEM:Hb ratio of 0.06:1, or 37 μCi/mg Hb. RP HPLC analysis after 24 hours at 4° C. indicated incorporation of the majority of the radiolabel into a modified beta peak. After 47 hr, a 15-fold excess (over βCys93 thiol) of non-radiolabeled NEM was added. Salts and unbound NEM were removed by gel filtration, and the final concentration adjusted to 10.2 mg Hb/mL. A small portion of this material (^3H-NEM-Hb) was then combined with rat serum containing haptoglobin to determine if all radiolabeled components bound to Hp. The Hb-binding capacity of the rat serum was adjusted to […] Hb/mL serum. 0.5 and 2.0 equivalents of ^3H-NEM-Hb, based on Hb-binding capacity, were combined with serum and analyzed -by size exclusion chromatography eluted under dissociating, non-denaturing conditions using 0.5 M MgCl2, 25 mM Tris pH 7.4 (FIG. 15). In the ^3H-NEM-Hb preparation, all radioactivity was associated with a 32 kDa peak. […] 7.3% of the radioactivity combining with plasma components appears in a high MW peak at 22 minutes.

[2] = 30 minutes, haptoglobin-depleted rats (group C)
[3] = 30 minutes, normal rats (groups A, B)
[4] = haptoglobin-depleted rats (group C)

In the case of “THb: TTDS (trimesoyl tris(3,5-dibromosalicylate)) cross-linked hemoglobin, hydrolyzed, without attached agent [reference compound]”, the “reacted with Hp (anion exchange chromatography)” value (haptoglobin 1-1) is reported as 74% and the “DNA binding (change in DNA migration)” value (plasmid DNA (pCMVbeta)) is reported as “does not bind DNA”.
For “[^3H]-NEM-Hb: purified human HbA0 modified with tritium-labeled N-ethylmaleimide; given alone to groups B and C”, the “dose in the plasma and liver compartments relative to groups A and B” value [1, 2] was “roughly half that amount”, the “total dose in the liver” value [1, 2] was 11% and the “dose in the plasma and liver compartments” value [1, 3] was 60%. The “total dose in the liver” value [1, 3] was “approximately 20%”, the “liver to plasma concentration/dose ratio” value ([1]; 120 minutes, normal rats (groups A, B)) was “approximately 4 times” and the “liver content relative to group C” value ([1]; 120 minutes, normal rats vs haptoglobin-depleted rats given modified Hb only) was 2 fold. The “AUC Liver” value [1, 4] was 234.0 ug Hb · min/g/dose, the “AUC Plasma” value [1, 4] was 163.0 ug Hb · min/mL/dose and the “liver uptake (area under distribution curve) relative to group C” value ([1]; normal rats (groups A, B) vs haptoglobin-depleted rats) was “approximately twice that of group C”. For the same substance, the “AUC Liver” value ([1]; normal rats (groups A, B)) was 510.4 ug Hb · min/g/dose, the “AUC Plasma” value ([1]; normal rats (groups A, B)) was 284.2 ug Hb · min/mL/dose and the “capability of all components to bind rat haptoglobin in plasma” value (rat haptoglobin) was “capable of binding rat haptoglobin in plasma”. The “radioactivity appearing in the Hb-haptoglobin peak” value (rat haptoglobin; 0.5 eq. based on Hb-binding capacity of rat serum, SEC) was “all radioactivity appeared in the Hb-haptoglobin peak”, the “binding state at haptoglobin saturation” value (rat haptoglobin; 2.0 eq. based on Hb-binding capacity of rat serum, SEC) was “haptoglobin is saturated and excess ^3H-NEM-Hb remains unbound” and the “radioactivity combining with plasma components appearing in high MW peak at 22 minutes” value (rat haptoglobin; rat serum, SEC) was 7.3%.
In the case of “unmodified hemoglobin: unmodified (uncross-linked) hemoglobin remaining in the THb-PQ product mixture”, the “reacted with Hp (anion exchange chromatography)” value (haptoglobin 1-1) is reported as “all”.
